From the PETadex activity labels (doi:10.1101/2025.08.30.673199)

B1: unnamed (protein)
chain: MKAPLFKLAAFTLGVSLSSVALATNPGGGGAGSNPDTGTGFPGVSSFSADGSFATTSGSAGLSCTVFRPSTLGANGLKHPIIVWGNGTTASPSTYSGILEHWASHGFVVIAANTSNAGTGQDMLNCVDYLTTQNNRSTGTYANKLDLNRIGAAGHSQGGGGTIMAGQDYRIKVTAPFQPYTIGLGHNSSSQSNQNGPMFLMTGSADTIASPTLNALPVYNRANVPVFWGELSGASHFEPVGSAGDFRGPSTAWFRYHLMDDASAEDTFYGSNADLCTDNDWDVRRKGIN
B2: unnamed (protein)
chain: MKAPLFKLAAFTLGVSLSSVALATNPGGGGAGSNPDTGTGFPGVSSFSADGSFATTSGSAGLSCTVFRPSTLGANGLKHPIIVWGNGTTASPSTYSGILEHWASHGFVVIAANTSNAGTGQDMLNCVDYLTTQNNRSTGTYANKLDLNRIGAAGHSQGGGGTIMAGQDYRIKVTAPFQPYTIGLGHNSSSQSNQNGPMFLMTGSADTIASPTLNALPVYNRANVPVFWGELSGASHIEPVGSAGDFRGPSTAWFRYHLMDDASAEDTFYGSNCDLCTDNDWDVRRKGIN
B3: unnamed (protein)
chain: MKAPLFKLAAFTLGVSLSSVALATNPGGGGAGSNPDTGTGFPGVSSFSADGSFATTSGSAGLSCTVFRPSTLGANGLKHPIIVWGNGTTASPSTYSGILEHWASHGFVVIAANTSNAGTGQDMLNCVDYLTTQNNRSTGTYANKLDLNRIGAAGHSQGGGGTIMAGQDYRIKVTAPFQPWTIGLGHNSSSQSNQNGPMFLMTGSADTIASPTLNALPVYNRANVPVFWGELSGASHFEPVGSAGDFRGPSTAWFRYHLMDDASAEDTFYGSNCDLCTDNDWDVRRKGIN
B4: unnamed (protein)
chain: MKAPLFKLAAFTLGVSLSSVALATNPGGGGAGSNPDTGTGFPGVSSFSADGSFATTSGSAGLSCTVFRPSTLGANGLKHPIIVWGNGTTASPSTYSGILEHWASHGFVVIAANTSNAGTGQDMLNCVDYLTTQNNRSTGTYANKLDLNRIGAAGHSQGGGGTIMAGQDYRIKVTAPFQPYTIGAGHNSSSQSNQNGPMFLMTGSADTIASPTLNALPVYNRANVPVFWGELSGASHFEPVGSAGDFRGPSTAWFRYHLMDDASAEDTFYGSNCDLCTDNDWDVRRKGIN
B5: unnamed (protein)
chain: MKAPLFKLAAFTLGVSLSSVALATNPGGGGAGSNPDTGTGFPGVSSFSADGSFATTSGSAGLSCTVFRPSTLGANGLKHPIIVWGNGTTASPSTYSGILEHWASHGFVVIAANTSNAGTGQDMLNCVDYLTTQNNRSTGTYANKLDLNRIGAAGHSQGGGGTIMAGQDYRIKVTAPFQPWTIGLGHNSSSQSNQNGPMFLMTGSADTIASPTLHALPFYNRANVPVFWGELSGASHFEPVGSAGDFRGPSTAWFRYHLMDDASAEDTFYGSNCDLCTDNDWDVRRKGIN
B6: unnamed (protein)
chain: MKAPLFKLAAFTLGVSLSSVALATNPGGGGAGSNPDTGTGFPGVSSFSADGSFATTSGSAGLSCTVFRPSTLGANGLKHPIIVWGNGTTASPSTYSGILEHWASHGFVVIAANTSNAGTGQDMLNCVDYLTTQNNRSTGTYANKLDLNRIGAAGHSQGGGGTIMAGQDYRIKVTAPFQPYTIALGHNSSSQSNQNGPMFLMTGSADTIASPTLNALPVYNRANVPVFWGELSGASHFEPVGSAGDFRGPSTAWFRYHLMDDASAEDTFYGSNCDLCTDNDWDVRRKGIN
B7: unnamed (protein)
chain: MKAPLFKLAAFTLGVSLSSVALATNPGGGGAGSNPDTGTGFPGVSSFSADGSFATTSGSAGLSCTVFRPSTLGANGLKHPIIVWGNGTTASPSTYSGILEHWASHGFVVIAANTSNAGTGQDMLNCVDYLTTQNNRSTGTYANKLDLNRIGAAGHSMGGGGTIMAGQDYRIKVTAPFQPYTIGLGHNSSSQSNQNGPMFLMTGSADTIASPTLNALPVYNRANVPVFWGELSGASHFEPVGSAGDFRGPSTAWFRYHLMDDASAEDTFYGSNCDLCTDNDWDVRRKGIN
B8: unnamed (protein)
chain: MKAPLFKLAAFTLGVSLSSVALATNPGGGGAGSNPDTGTGFPGVSSFSADGSFATTSGSAGLSCTVFRPSTLGANGLKHPIIVWGNGTTASPSTYSGILEHWASHGFVVIAANTSNAGTGQDMLNCVDYLTTQNNRSTGTYANKLDLNRIGAAGHSQGGGGTIMAGQDYRIKVTAPFQPYTIGLGHNSSSQSNQNGPMFLMTGSADTIASPTLNALPVYNRANVPVFWGELSGASAFEPVGSAGDFRGPSTAWFRYHLMDDASAEDTFYGSNCDLCTDNDWDVRRKGIN
B9: unnamed (protein)
chain: MKAPLFKLAAFTLGVSLSSVALATNPGGGGAGSNPDTGTGFPGVSSFSADGSFATTSGSAGLSCTVFRPSTLGANGLKHPIIVWGNGTTASPSTYSGILEHWASHGFVVIAANTSNAGTGQDMLNCVDYLTTQNNRSTGTYANKLDLNRIGAAGHSQGGGGTIMAGQDYRIKVTAPFQPWTIGLGHNSSSQSNQNGPMFLMTGSADTIASPTLSALPIYNRANVPVFWGELSGASHFEPVGSAGDFRGPSTAWFRYHLMDDASAEDTFYGSNCDLCTDNDWDVRRKGIN
B10: unnamed (protein)
chain: MKAPLFKLAAFTLGVSLSSVALATNPGGGGAGSNPDTGTGFPGVSSFSADGSFATTSGSAGLSCTVFRPSTLGANGLKHPIIVWGNGTTASPSTYSGILEHWASHGFVVIAANTSNAGTGQDMLNCVDYLTTQNNRSTGTYANKLDLNRIGAAGHSQGGGGTIMAGQDYRIKVTAPFQPYTIGLAHNSSSQSNQNGPMFLMTGSADTIASPTLNALPVYNRANVPVFWGELSGASHFEPVGSAGDFRGPSTAWFRYHLMDDASAEDTFYGSNCDLCTDNDWDVRRKGIN
B11: unnamed (protein)
chain: MKAPLFKLAAFTLGVSLSSVALATNPGGGGAGSNPDTGTGFPGVSSFSADGSFATTSGSAGLSCTVFRPSTLGANGLKHPIIVWGNGTTASPSTYSGILEHWASHGFVVIAANTSNAGTGQDMLNCVDYLTTQNNRSTGTYANKLDLNRIGAAGHSQGGGGTIMAGQDYRIKVTAPFQPYTIGLGANSSSQSNQNGPMFLMTGSADTIASPTLNALPVYNRANVPVFWGELSGASHFEPVGSAGDFRGPSTAWFRYHLMDDASAEDTFYGSNCDLCTDNDWDVRRKGIN
B12: unnamed (protein)
chain: MKAPLFKLAAFTLGVSLSSVALATNPGGGGAGSNPDTGTGFPGVSSFSADGSFATTSGSAGLSCTVFRPSTLGANGLKHPIIVWGNGTTASPSTYSGILEHWASHGFVVIAANTSNAGTGQDMLNAVDYLTTQNNRSTGTYANKLDLNRIGAAGHSQGGGGTIMAGQDYRIKVTAPFQPYTIGLGHNSSSQSNQNGPMFLMTGSADTIASPTLNALPVYNRANVPVFWGELSGASHFEPVGSAGDFRGPSTAWFRYHLMDDASAEDTFYGSNCDLCTDNDWDVRRKGIN

Substrate: PET
Assay: Proxy for plastic degradation [Released monomer concentration (HPLC/LC-MS) (TPA+MHET+BHET)]
Settings: pH 9

Going from B1 to B2, the “Proxy for plastic degradation” value rises from 10 µM to 1280 µM (130-fold).

Going from B3 to B4, the “Proxy for plastic degradation” value rises from 195 µM to 820 µM (4.2-fold).

Going from B5 to B6, the “Proxy for plastic degradation” value rises from 85 µM to 600 µM (7.1-fold).

Going from B7 to B8, the “Proxy for plastic degradation” value falls from 315 µM to 10 µM (32-fold).

Going from B9 to B10, the “Proxy for plastic degradation” value rises from 105 µM to 540 µM (5.1-fold).

Going from B11 to B12, the “Proxy for plastic degradation” value rises from 120 µM to 250 µM (2.1-fold).
